Results published in US20250382376A1 (FUDAN UNIVERSITY, published 2025).

T1: extracellular domain of human CD73 protein, C-terminus polyhistidine-tagged (human, UniProt P21589 27-547)
T1 construct: also the immunogen; also called CD73-ECD; human CD73-ECD
T1 sequence: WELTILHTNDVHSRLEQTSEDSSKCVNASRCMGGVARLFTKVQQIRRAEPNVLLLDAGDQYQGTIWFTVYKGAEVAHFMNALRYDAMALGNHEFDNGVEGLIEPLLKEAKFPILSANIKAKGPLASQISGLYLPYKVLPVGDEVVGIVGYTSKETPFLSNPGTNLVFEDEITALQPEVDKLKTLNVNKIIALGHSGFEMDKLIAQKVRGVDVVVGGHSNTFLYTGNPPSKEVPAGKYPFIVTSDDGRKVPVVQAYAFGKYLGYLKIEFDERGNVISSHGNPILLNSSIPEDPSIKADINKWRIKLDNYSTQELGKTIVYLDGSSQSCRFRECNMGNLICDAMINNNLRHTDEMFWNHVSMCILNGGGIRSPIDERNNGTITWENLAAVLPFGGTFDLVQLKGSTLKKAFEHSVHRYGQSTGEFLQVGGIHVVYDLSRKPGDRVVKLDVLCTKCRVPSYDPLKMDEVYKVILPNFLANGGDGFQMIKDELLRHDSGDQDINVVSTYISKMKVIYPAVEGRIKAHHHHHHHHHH

T2: CD73 on the surface of human cells (human, UniProt P21589 27-549)
T2 construct: whole, on cells; The cell line of each value is named under assay or readout; also called CD73 on the surface of tumor cells; CD73 enzyme on the surface of MDA-MB-231 cells
T2 sequence (looked up): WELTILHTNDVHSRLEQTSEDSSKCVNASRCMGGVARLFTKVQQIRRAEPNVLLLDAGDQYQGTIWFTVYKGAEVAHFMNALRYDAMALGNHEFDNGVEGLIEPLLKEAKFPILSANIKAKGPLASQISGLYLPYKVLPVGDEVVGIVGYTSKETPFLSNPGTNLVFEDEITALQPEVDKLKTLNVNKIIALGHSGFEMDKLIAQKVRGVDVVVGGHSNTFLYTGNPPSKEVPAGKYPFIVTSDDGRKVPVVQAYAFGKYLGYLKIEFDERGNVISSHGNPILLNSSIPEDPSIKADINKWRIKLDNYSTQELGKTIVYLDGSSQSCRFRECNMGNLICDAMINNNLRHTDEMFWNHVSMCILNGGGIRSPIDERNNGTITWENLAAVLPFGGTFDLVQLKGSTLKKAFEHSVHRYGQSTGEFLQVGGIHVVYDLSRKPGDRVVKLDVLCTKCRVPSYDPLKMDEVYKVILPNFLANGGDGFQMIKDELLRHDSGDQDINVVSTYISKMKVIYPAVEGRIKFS

T3: human recombinant CD73 enzyme (CD73 extracellular region) (human, UniProt P21589 27-549)
T3 sequence (looked up): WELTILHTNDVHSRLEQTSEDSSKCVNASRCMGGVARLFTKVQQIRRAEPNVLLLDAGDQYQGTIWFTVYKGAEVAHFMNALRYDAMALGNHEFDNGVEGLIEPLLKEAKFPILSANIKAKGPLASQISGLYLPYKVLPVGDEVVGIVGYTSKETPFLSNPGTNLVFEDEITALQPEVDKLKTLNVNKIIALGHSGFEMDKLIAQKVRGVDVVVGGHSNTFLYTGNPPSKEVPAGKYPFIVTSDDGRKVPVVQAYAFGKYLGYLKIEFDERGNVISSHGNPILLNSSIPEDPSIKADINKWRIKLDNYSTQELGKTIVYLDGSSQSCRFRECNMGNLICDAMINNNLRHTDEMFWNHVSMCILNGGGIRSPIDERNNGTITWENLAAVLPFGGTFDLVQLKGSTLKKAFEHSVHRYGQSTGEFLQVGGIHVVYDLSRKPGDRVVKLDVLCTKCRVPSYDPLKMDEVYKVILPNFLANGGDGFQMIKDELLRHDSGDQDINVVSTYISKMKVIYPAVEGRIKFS


How the values were obtained:
[1] = biological target: T1, extracellular domain of human CD73 …; assay: ForteBio OCTET R2 (the filing calls it SPR); antibody on Protein A sensor, CD73-ECD in solution; traces labelled 100, 50, 25, 12.5, 6.25
Procedure: Surface plasmon resonance (SPR) assay: Protein A sensor was used to immobilize the antibodies, with an immobilization height of about 1.5 nM. […] Affinity detection: equilibrium for 60 s, binding for 180 s, dissociation for 180 s, at a detection temperature of 25° C. Kinetic characterization analysis was performed using the ForteBio OCTET R2 system.

[2] = biological target: T2, CD73 on the surface of human cells; assay: Flow cytometry on SW1573 cells, PE-labelled secondary antibody [panel A]
Procedure: (§1) 100 μL of the test antibodies diluted from 10 μg/mL to 0.016 μg/mL in a 5-fold gradient were used as the primary antibodies, and were mixed with 1×10⁵ tumor cells suspended in 100 μL RPMI-1640 serum-free medium to make a final concentration of 5 μg/mL diluted to 0.008 μg/mL, and then incubated at 4° C. for 1 h. The cells were washed twice with PBS to remove unbound primary antibodies, and then the target cells were incubated with 200 μLPE-labeled secondary antibody at 2 μg/mL at 4° C. for 30 min. The cells were washed twice with PBS to remove unbound secondary antibodies, and finally the cells were resuspended in 200 μL PBS. The binding affinity of the test antibodies to CD73 on the surface of the corresponding cells was measured by flow cytometry.

[3] = biological target: T2, CD73 on the surface of human cells; assay: flow cytometry on NCI-H1975 cells
Procedure: as §1

[4] = biological target: T2, CD73 on the surface of human cells; assay: flow cytometry on NCI-H1299 cells
[5] = biological target: T2, CD73 on the surface of human cells; assay: Flow cytometry on MDA-MB-231 cells, PE-labelled secondary antibody [panel A]
Procedure: as §1

[6] = biological target: T2, CD73 on the surface of human cells; assay: Flow cytometry on HCC44 cells, PE-labelled secondary antibody
Procedure: as §1

[7] = biological target: T3, human recombinant CD73 enzyme (CD73 …); assay: cell-based or functional assay
[8] = biological target: T2, CD73 on the surface of human cells; assay: cell-based or functional assay
[9] = biological target: T2, CD73 on the surface of human cells; assay: Flow cytometry on NCI-H1373 cells, PE-labelled secondary antibody [panel B]
Procedure: as §1

[10] = biological target: T2, CD73 on the surface of human cells; assay: flow cytometry on PC9 cells
Procedure: as §1

[11] = biological target: T1, extracellular domain of human CD73 …; assay: ELISA on coated human CD73-ECD, HRP-protein A detection; fitted upper plateau of the OD450 curve; parameters: unit not given here
Procedure: The CD73 protein extracellular region (CD73-ECD) was diluted to 1 μg/mL using the coating solution, and an ELISA plate was coated at 100 μL/well at 4° C. overnight. Excess antigens were washed away, and the plate was blocked with 1% BSA at room temperature for 2 hours. Then, 5-fold gradient dilutions of each monoclonal antibody were added at 100 μL/well and incubated at room temperature for 1 hour. Unbound antibodies were washed away, and an appropriate concentration of Staphylococcal protein A labeled with horseradish peroxidase was added at 100 μL/well and incubated at room temperature for 0.5 hours. Unbound secondary antibodies were washed away, and TMB color development solution was added to react for about 15 minutes. 1M HCL was added at 50 µL/well to terminate the color development reaction, and then the absorbance was measured at 450 nm and the data was analyzed.

[12] = biological target: T2, CD73 on the surface of human cells; assay: flow cytometry on SW1573 cells
Procedure: as §1

koff [1] | kon [1] | Max MFI [2] | EC50 [3] | EC50 [4] | Max MFI [5] | Max MFI [6] | IC50, inhibition of AMP hydrolysis by recombinant human CD73 enzyme (CellTiter-Glo) [7] | EC50, reversal of the AMP inhibition of human T lymphocyte proliferation [8] | IC50, inhibition of AMP hydrolysis by CD73 on MDA-MB-231 cells [8] | Max MFI [9] | EC50 [10] | Top (%) [11] | EC50 [12] | IC50, inhibition of the catalytic function of recombinant human CD73 enzyme [7] | Binder
0.000277 s⁻¹ | 301000 M⁻¹ s⁻¹ | 71300 MFI | 0.068 µg/mL | 0.08 µg/mL | 79300 MFI | 145000 MFI | 0.00563 µg/mL | 0.0025 µg/mL | 0.093 µg/mL | 220000 MFI | 0.057 µg/mL | 2.08 | 0.067 µg/mL |  | chimeric nanobody 4-D04 (Fc fusion, Human-alpaca chimeric antibody) VHH: QLQLVESGGGLVQPGGSLRLSCAASGFTLDYYNIGWFRQAPGKEREGVSCISSSEGSTYYADSVKGRFTISRDNAKNTVYLQMNSLKPEDTAVYYCAADRYYYCSLHVSQYDYWGQGTLVTVSS
0.000318 s⁻¹ | 385000 M⁻¹ s⁻¹ | 69600 MFI | 0.057 µg/mL | 0.068 µg/mL | 64500 MFI | 130000 MFI | 0.00947 µg/mL | 0.0008 µg/mL | 0.088 µg/mL | 191000 MFI | 0.041 µg/mL | 2.28 |  |  | chimeric nanobody 5-E11 (Fc fusion, Human-alpaca chimeric antibody (VHH on hIgG1 Fc); Only the VHH is tied to the tested molecule; also called original antibody 5-E11) VHH: ALQLVESGGGLVQPGGSLRLSCEVSGFTLDYYNIGWFRQAPGKEREGVSCSSNSGGSTYYADSVKGRFTISRDNAKNTVYLQMNSLKPEDTGVYYCAAYRGWHPSLDARVYDYWGQGTEVTVSS

The remaining lines, values behind:

Binder | koff [1] | kon [1] | Max MFI [2] | EC50 [3] | EC50 [4] | Max MFI [5] | Max MFI [6] | IC50, inhibition of AMP hydrolysis by recombinant human CD73 enzyme (CellTiter-Glo) [7] | EC50, reversal of the AMP inhibition of human T lymphocyte proliferation [8] | IC50, inhibition of AMP hydrolysis by CD73 on MDA-MB-231 cells [8] | Max MFI [9] | EC50 [10] | Top (%) [11] | EC50 [12] | IC50, inhibition of the catalytic function of recombinant human CD73 enzyme [7]
chimeric nanobody 4-B02 (Fc fusion, Human-alpaca chimeric antibody) VHH: EVQLVESGGGLVQPGGSLRLSCAASGFPLDYYSIGWFRQAPGKEREGVSCIGSSDGSTYYADSVKGRFTISRDNAENTVWLQMNSLKPEDTAVYYCAALKYYYCSGHEAIYDYWGQGTQVTVSG | 0.000209 s⁻¹ | 263000 M⁻¹ s⁻¹ | 73800 MFI | 0.055 µg/mL | 0.078 µg/mL | 69500 MFI | 136000 MFI | 0.00466 µg/mL | 0.0012 µg/mL | 0.083 µg/mL | 206000 MFI | 0.044 µg/mL | 2 | 0.061 µg/mL | 
chimeric nanobody 3-D7 (Fc fusion, Human-alpaca chimeric antibody (VHH on hIgG1 Fc); Only the VHH is tied to the tested molecule; 37-39 exist for 3-D7-FC1/FC2/FC3; also called original antibody 3-D7) VHH: QRQLVESGGGLVQPGGSLRLSCAASGFLLDYYVIGWFRQAPGKEREGVSCISGSDRSTYYADSVKGRFTISRDNAKNTVYLQMNSLKPEDTAVYFCAADPSPVTVQAMCLPRFPVPYWGQGTQVTVST | 0.000445 s⁻¹ | 223000 M⁻¹ s⁻¹ | 71000 MFI | 0.106 µg/mL |  | 69600 MFI | 135000 MFI | 0.0382 µg/mL | 0.0247 µg/mL | 0.483 µg/mL | 200000 MFI | 0.133 µg/mL | 1.79 | 0.116 µg/mL | 0.0363 µg/mL
